B1: CPEB3 Ribozyme (parent)
chain: UAACAGGGGGCCACAGCAGAAGCGUUCACGUCGCAGCCCCUGUCAGAUUCUGGUGAAUCUGCGAAUUCUGCUGUAUAUCUC

Variants of: B1
Assay: self-cleavage, relative activity (ratio to wild type); higher = more cleavage; in vitro, sequencing
Summary of the method: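 Barcoded CPEB3 ribozyme mutants, produced by rounds of error-prone PCR, self-cleaved while being transcribed with T7 RNA polymerase for 5 hours at 37°C and during a subsequent 15 min DNase I step before EDTA was added. Sequencing of template-switched cDNA on Illumina gave cleaved and total reads, and DNA sequencing assigned barcodes to variants. Each variant's relative activity is its cleaved/total read fraction divided by the unmutated ribozyme's fraction, averaged across three batches. A variant needed a minimum of 5 reads.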
Work on UAACAGGGGGCCACAGCAUAAGCGUUCACGUCGCAGCCCCUGUCAGAUUCUGGUGAAUCUGCGAAUUCUGCUGUAUAUCCC [G19U U80C] yielded a self-cleavage of 0.26. In the case of UAACAGGGGGCCACAGCAGCAGCGUUCACGUCGCAGCCCCUGUCAGAUUCUGGUGAAUCUGCGAAUUCUGCUGUAUAUCUC [A20C], the self-cleavage is reported as 0.3. Work on UAACAGGGGGCCACAGCAGCGGCGUUCACGUCGCAGCCCCUGUCAGAUUCUGGUGAAUCUGCGAAUUCUGCUGUAUAUCUC [A20C A21G] yielded a self-cleavage of 0.49. With UAACAGGGGGCCACAGCAGCUGCGUUCACGUCGCAGCCCCUGUCAGAUUCUGGUGAAUCUGCGAAUUCUGCUGUAUAUCUC [A20C A21U] the self-cleavage was 0.2. For UAACAGGGGGCCACAGCAGCAGCGUUCGCGUCGCAGCCCCUGUCAGAUUCUGGUGAAUCUGCGAAUUCUGCUGUAUAUCUC [A20C A28G], the self-cleavage was 0.24. UAACAGGGGGCCACAGCAGCAGCGUUCACGUCGCGGCCCCUGUCAGAUUCUGGUGAAUCUGCGAAUUCUGCUGUAUAUCUC [A20C A35G] gave a self-cleavage of 0.88. For UAACAGGGGGCCACAGCAGCAGCGUUCACGUCGCUGCCCCUGUCAGAUUCUGGUGAAUCUGCGAAUUCUGCUGUAUAUCUC [A20C A35U], the self-cleavage was 0.17. UAACAGGGGGCCACAGCAGCAGCGUUCACGUCGCAGCCCCUGUCCGAUUCUGGUGAAUCUGCGAAUUCUGCUGUAUAUCUC [A20C A45C] showed a self-cleavage of 0.35. In the case of UAACAGGGGGCCACAGCAGCAGCGUUCACGUCGCAGCCCCUGUCGGAUUCUGGUGAAUCUGCGAAUUCUGCUGUAUAUCUC [A20C A45G], the self-cleavage is reported as 0.33. Variant UAACAGGGGGCCACAGCAGCAGCGUUCACGUCGCAGCCCCUGUCUGAUUCUGGUGAAUCUGCGAAUUCUGCUGUAUAUCUC [A20C A45U] has a self-cleavage of 0.2. For UAACAGGGGGCCACAGCAGCAGCGUUCACGUCGCAGCCCCUGUCAGGUUCUGGUGAAUCUGCGAAUUCUGCUGUAUAUCUC [A20C A47G], the self-cleavage was 0.45. Variant UAACAGGGGGCCACAGCAGCAGCGUUCACGUCGCAGCCCCUGUCAGUUUCUGGUGAAUCUGCGAAUUCUGCUGUAUAUCUC [A20C A47U] has a self-cleavage of 0.47. For UAACAGGGGGCCACAGCAGCAGCGUUCACGUCGCAGCCCCUGUCAGAUUCUGGUGCAUCUGCGAAUUCUGCUGUAUAUCUC [A20C A56C], the self-cleavage was 0.22. UAACAGGGGGCCACAGCAGCAGCGUUCACGUCGCAGCCCCUGUCAGAUUCUGGUGGAUCUGCGAAUUCUGCUGUAUAUCUC [A20C A56G] gave a self-cleavage of 0.27. UAACAGGGGGCCACAGCAGCAGCGUUCACGUCGCAGCCCCUGUCAGAUUCUGGUGAGUCUGCGAAUUCUGCUGUAUAUCUC [A20C A57G] gave a self-cleavage of 0.09. Work on UAACAGGGGGCCACAGCAGCAGCGUUCACGUCGCAGCCCCUGUCAGAUUCUGGUGAAUCUGCGGAUUCUGCUGUAUAUCUC [A20C A64G] yielded a self-cleavage of 0.07. Variant UAACAGGGGGCCACAGCAGCAGCGUUCACGUCGCAGCCCCUGUCAGAUUCUGGUGAAUCUGCGUAUUCUGCUGUAUAUCUC [A20C A64U] has a self-cleavage of 0.17. With UAACAGGGGGCCACAGCAGCAGCGUUCACGUCGCAGCCCCUGUCAGAUUCUGGUGAAUCUGCGAGUUCUGCUGUAUAUCUC [A20C A65G] the self-cleavage was 0.42. For UAACAGGGGGCCACAGCAGCAGCGUUCACGUCGCAGCCCCUGUCAGAUUCUGGUGAAUCUGCGAAUUCUGCUGUAUGUCUC [A20C A77G], the self-cleavage was 0.11. Variant UAACAGGGGGCCACAGCAGCAGCGUUCACGUCGCAGCCCCUGUCAGAUUCUGGUGAAUCUGCGAAUUCUGCUGUAUUUCUC [A20C A77U] has a self-cleavage of 0.35. With UAACAGGGGGCCACAGCAGCAGAGUUCACGUCGCAGCCCCUGUCAGAUUCUGGUGAAUCUGCGAAUUCUGCUGUAUAUCUC [A20C C23A] the self-cleavage was 0.09. With UAACAGGGGGCCACAGCAGCAGCGUUAACGUCGCAGCCCCUGUCAGAUUCUGGUGAAUCUGCGAAUUCUGCUGUAUAUCUC [A20C C27A] the self-cleavage was 0.37. In the case of UAACAGGGGGCCACAGCAGCAGCGUUCAUGUCGCAGCCCCUGUCAGAUUCUGGUGAAUCUGCGAAUUCUGCUGUAUAUCUC [A20C C29U], the self-cleavage is reported as 0.12. Variant UAACAGGGGGCCACAGCAGCAGCGUUCACGUAGCAGCCCCUGUCAGAUUCUGGUGAAUCUGCGAAUUCUGCUGUAUAUCUC [A20C C32A] has a self-cleavage of 0.25. Variant UAACAGGGGGCCACAGCAGCAGCGUUCACGUCGUAGCCCCUGUCAGAUUCUGGUGAAUCUGCGAAUUCUGCUGUAUAUCUC [A20C C34U] has a self-cleavage of 0.18. In the case of UAACAGGGGGCCACAGCAGCAGCGUUCACGUCGCAGUCCCUGUCAGAUUCUGGUGAAUCUGCGAAUUCUGCUGUAUAUCUC [A20C C37U], the self-cleavage is reported as 0.13. Variant UAACAGGGGGCCACAGCAGCAGCGUUCACGUCGCAGCCGCUGUCAGAUUCUGGUGAAUCUGCGAAUUCUGCUGUAUAUCUC [A20C C39G] has a self-cleavage of 0.07. In the case of UAACAGGGGGCCACAGCAGCAGCGUUCACGUCGCAGCCCCUGUUAGAUUCUGGUGAAUCUGCGAAUUCUGCUGUAUAUCUC [A20C C44U], the self-cleavage is reported as 0.22. UAACAGGGGGCCACAGCAGCAGCGUUCACGUCGCAGCCCCUGUCAGAUUCUGGUGAAUCUGUGAAUUCUGCUGUAUAUCUC [A20C C62U] gave a self-cleavage of 0.12. Work on UAACAGGGGGCCACAGCAGCAGCAUUCACGUCGCAGCCCCUGUCAGAUUCUGGUGAAUCUGCGAAUUCUGCUGUAUAUCUC [A20C G24A] yielded a self-cleavage of 0.21. With UAACAGGGGGCCACAGCAGCAGCCUUCACGUCGCAGCCCCUGUCAGAUUCUGGUGAAUCUGCGAAUUCUGCUGUAUAUCUC [A20C G24C] the self-cleavage was 0.1. Variant UAACAGGGGGCCACAGCAGCAGCGUUCACUUCGCAGCCCCUGUCAGAUUCUGGUGAAUCUGCGAAUUCUGCUGUAUAUCUC [A20C G30U] has a self-cleavage of 0.05. Variant UAACAGGGGGCCACAGCAGCAGCGAUCACGUCGCAGCCCCUGUCAGAUUCUGGUGAAUCUGCGAAUUCUGCUGUAUAUCUC [A20C U25A] has a self-cleavage of 0.31. With UAACAGGGGGCCACAGCAGCAGCGCUCACGUCGCAGCCCCUGUCAGAUUCUGGUGAAUCUGCGAAUUCUGCUGUAUAUCUC [A20C U25C] the self-cleavage was 0.28.

— the RNAGym collection of RNA variant scans (doi:10.1093/nar/gkz1192)
